The record followed here is US20250197514A1 (INTERVET, published 2025).

Experiment [1] has as its target T1, canine FcRn heterodimer (FCGRT large subunit p51 + beta-2-microglobulin), biotin-labeled (Canis lupus familiaris; Canis familiaris, biotin-labeled (site not stated; the chain carries an AviTag)).
T1 construct: also called FcRn/B2M; FcRn/β2M; not shown: AviTag, named only
T1 chain (part 1 of 2): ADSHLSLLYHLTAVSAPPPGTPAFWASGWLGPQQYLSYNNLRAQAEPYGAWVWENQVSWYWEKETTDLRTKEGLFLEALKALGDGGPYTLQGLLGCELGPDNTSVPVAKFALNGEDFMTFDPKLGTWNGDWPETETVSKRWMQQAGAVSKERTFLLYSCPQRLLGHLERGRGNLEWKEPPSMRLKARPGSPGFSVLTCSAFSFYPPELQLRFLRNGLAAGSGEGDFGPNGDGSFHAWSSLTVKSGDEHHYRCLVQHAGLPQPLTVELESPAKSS
T1 chain (part 2 of 2): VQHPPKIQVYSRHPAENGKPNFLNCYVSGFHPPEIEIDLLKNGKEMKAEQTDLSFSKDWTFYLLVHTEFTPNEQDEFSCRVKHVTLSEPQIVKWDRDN
Kind of experiment: BLI (Octet HTX), biotinylated FcRn/B2M on streptavidin biosensors, analyte 500-7.8 nM, pH 7.4, 1:1 fit; pH 7.4. The protocol:
(§1) The binding of antibodies and IgG Fc fusion proteins to FcRn proteins was determined by Octet™ HTX using Streptavidin (SA) biosensors. First, biotin-labeled […] was loaded onto pre-hydrated SA biosensors for 60 s at a concentration of 10 μg/mL. Second, the biosensors were placed into pH 6.0 TBS/Casein buffer for the blocking phase for 180 s. Third, for the association phase, FcRn/B2M loaded biosensors were placed into 2-fold serial dilutions from 500 nM down to 7.8 nM of antibody or IgG Fc fusion protein in pH 6.0 or 7.4 TBS/Casein buffer for 15 s. Finally, the biosensors were placed into either pH 6.0 or pH 7.4 TBS/Casein buffer for the dissociation phase for 60 s. Analysis was performed using Octet Data Analysis 12.0 software and curves were fitted using a 1:1 binding model.

Experiment [2] addresses T1, canine FcRn heterodimer (FCGRT large …). Kind of experiment: BLI (Octet HTX), biotinylated FcRn/B2M on streptavidin biosensors, analyte 500-7.8 nM, pH 7.4, 1:1 fit. As for the experimental part:
as §1

For experiment [3] the target is unchanged. Kind of experiment: BLI (Octet HTX), biotinylated FcRn/B2M on streptavidin biosensors, analyte 500-7.8 nM, pH 6.0, 1:1 fit; pH 6.0. As for the experimental part: as §1
Experiment [4] has the same target. Kind of experiment: BLI (Octet HTX), biotinylated FcRn/B2M on streptavidin biosensors, analyte 500-7.8 nM, pH 6.0, 1:1 fit. The protocol: as §1

B1: c218D9-H4L3-cIgGBm-YD (antibody)
heavy: EVTLQESGPGLVKPSQTLSLTCSFSGFSLSTFGRGVGWIRQRPGRGLEWMGHIWWDDDKYYNPALKSRLSITKDTAKNQVFLQLSSMTTEDTAVYYCARIAGGLRRAPYAMDSWGQGTLVTVSSASTTAPSVFPLAPSCGSTSGSTVALACLVSGYFPEPVTVSWNSGSLTSGVHTFPSVLQSSGLYSLSSMVTVPSSRWPSETFTCNVAHPASKTKVDKPVPKRENGRVPRPPDCPKCPAPEMLGGPSVFIFPPKPKDTLYIARDPEVTCVVVALDPEDPEVQISWFVDGKQMQTAKTQPREEQFAGTYRVVSVLPIGHQDWLKGKQFTCKVNNKALPSPIERTISKARGQAHQPSVYVLPPSREELSKNTVSLTCLIKDFFPPDIDVEWQSNGQQEPESKYRTTPPQLDEDGSYFLYSKLSVDKSRWQRGDTFICAVMHEALHNHYTQESLSHSPGK
light: DIVMTQTPLSLSVSPGETASISCRASENIYSSLAWFRQKPGQSPQLLVYAATNLADGVPDRFSGSGSGTDYTLRISRVEADDTGVYYCQHFRDTPPTFGQGTKLEIKRNDAQPAVYLFQPSPDQLHTGSASVVCLLNSFYPKDINVKWKVDGVIQDTGIQESVTEQDKDSTYSLSSTLTMSSTEYLSHELYSCEITHKSLPSTLIKSFQRSECQRVD
notes: also called c218D9VH4-cIgGBm-YD; L252Y/T256D
Turning to B1, the Kd in experiment [1] turned out to be 105 nM.

B2: cIL-13Rα2-cIgGB-Fc-KFT (Fc fusion)
chain: SMLSNAEIKVNPPQDFEIVDPGYLGYLSLQWQPPLFPDNFKECTIEYELKYRNIDSENWKTIITKNLHYKDGFDLNKGIEAKINTLLPAQCTNGSEVRSSWAETTYWTSPQGNRETKIQDMDCVYYNWQYLVCSWKPGMGVHFDTNYQLFYWYEGLDHSAECTDYIKVNGKNMGCRFPYLESSDYKDFYICVNGSSESQPIRPSYFIFQLQNIVKPMPPDYLSLTVKNSEEINLKWNMPKGPIPAKCFIYEIEFTEDGTTWVTTTVENEIQITRTSNESQKLCFLVRSKVNIYCSDDGIWSEWSDEQCWKGDIWKETPKRENGRVPRPPDCPKCPAPEMLGGPSVFIFPPKPKDTLLIARTPEVTCVVVDLDPEDPEVQISWFVDGKQMQTAKTQPREEQFNGTYRVVSVLPIGHQDWLKGKQFTCKVNNKALPSPIERTISKARGQAHQPSVYVLPPSREELSKNTVSLTCLIKDFFPPDIDVEWQSNGQQEPESKYRTTPPQLDEDGSYFLYSKLSVDKSRWQRGDTFICAVMHEALKFHTTQESLSHSPGK
notes: also called cIL-13Ra2-cIgGB-Fc-KFT; H433K/N434F/Y436T
For the molecule B2, the Kd amounted to 136 nM in experiment [2] and 931 nM in experiment [3].

B3: cIL-13Rα2-cIgGB-Fc-YT (Fc fusion)
chain: SMLSNAEIKVNPPQDFEIVDPGYLGYLSLQWQPPLFPDNFKECTIEYELKYRNIDSENWKTIITKNLHYKDGFDLNKGIEAKINTLLPAQCTNGSEVRSSWAETTYWTSPQGNRETKIQDMDCVYYNWQYLVCSWKPGMGVHFDTNYQLFYWYEGLDHSAECTDYIKVNGKNMGCRFPYLESSDYKDFYICVNGSSESQPIRPSYFIFQLQNIVKPMPPDYLSLTVKNSEEINLKWNMPKGPIPAKCFIYEIEFTEDGTTWVTTTVENEIQITRTSNESQKLCFLVRSKVNIYCSDDGIWSEWSDEQCWKGDIWKETPKRENGRVPRPPDCPKCPAPEMLGGPSVFIFPPKPKDTLLIARTPEVTCVVVDLDPEDPEVQISWFVDGKQMQTAKTQPREEQFNGTYRVVSVLPIGHQDWLKGKQFTCKVNNKALPSPIERTISKARGQAHQPSVYVLPPSREELSKNTVSLTCLIKDFFPPDIDVEWQSNGQQEPESKYRTTPPQLDEDGSYFLYSKLSVDKSRWQRGDTFICAVMHEALHYHTTQESLSHSPGK
notes: also called cIL-13Ra2-cIgGB-Fc-YT; N434Y/Y436T
For B3, the Kd in experiment [2] worked out at 233 nM; in experiment [4], 1.39 nM.

B4: cIL-13Rα2-cIgGB-Fc-KY (Fc fusion)
chain: SMLSNAEIKVNPPQDFEIVDPGYLGYLSLQWQPPLFPDNFKECTIEYELKYRNIDSENWKTIITKNLHYKDGFDLNKGIEAKINTLLPAQCTNGSEVRSSWAETTYWTSPQGNRETKIQDMDCVYYNWQYLVCSWKPGMGVHFDTNYQLFYWYEGLDHSAECTDYIKVNGKNMGCRFPYLESSDYKDFYICVNGSSESQPIRPSYFIFQLQNIVKPMPPDYLSLTVKNSEEINLKWNMPKGPIPAKCFIYEIEFTEDGTTWVTTTVENEIQITRTSNESQKLCFLVRSKVNIYCSDDGIWSEWSDEQCWKGDIWKETPKRENGRVPRPPDCPKCPAPEMLGGPSVFIFPPKPKDTLLIARTPEVTCVVVDLDPEDPEVQISWFVDGKQMQTAKTQPREEQFNGTYRVVSVLPIGHQDWLKGKQFTCKVNNKALPSPIERTISKARGQAHQPSVYVLPPSREELSKNTVSLTCLIKDFFPPDIDVEWQSNGQQEPESKYRTTPPQLDEDGSYFLYSKLSVDKSRWQRGDTFICAVMHEALKYHYTQESLSHSPGK
notes: also called cIL-13Ra2-cIgGB-Fc-KY; H433K/N434Y
Regarding B4, the Kd was found to be 296 nM in experiment [2] and 0.00046 nM in experiment [3].
